Biological target: SARS-CoV-2 spike protein (SARS-CoV-2, UniProt P0DTC2 14-1213)

B1: M4-4 (antibody, V domains shown)
VH: EVQLVESGGGLVKPGGSLRLSCAASGFTFSSRGMSWVRQAPGKGLEWVSTISFGDIYTYYPDSVKGRFTISRDNAKNSLYLQMNSLRAEDTAVYYCARPNDGYFDYWGQGTLVTVSS
VL: DIVMTQSPATLSVSPGERATLSCKASQDVSTDVAWYQQKPGQAPRLLIYWASTRHTGVPDRFSGSGSGTDFTLTISSLQSEDFAVYYCQQHYSTPWTFGGGTKVEIKR
  dissociation constant against REGN10933 and REGN10987: ~10 fold
